PMC6193540

What was measured:
[1] = target: p53, endogenous in 92-VU-040T HNSCC cells (human (endogenous in 92-VU-040T)) (UniProt P04637); assay: co-IP
[2] = target: p53, endogenous in 93-VU-147T HNSCC cells (human (endogenous in 93-VU-147T)) (UniProt P04637); assay: co-IP

B1: PBF, HA-tagged (natural protein)
chain: QEPPGAACSQNTNKTCEECLKNVSCLWCNTNKACLDYPVTSVLPPASLCKLSSARWGVCWVNFEALIITMSVVGGTLLLGIAICCCCCCRRKRSRKPDRSEEKAMREREERRIRQEERRAEMKTRHDEIRKKYGLFKEENPYARFENN
- fold change of the binding to p53 in PTTG-depleted cells against Scr shRNA cells [1]: 4 fold
- fold change of the binding to p53 in PTTG-depleted cells against Scr shRNA cells [2]: 3.6 fold
